From publication PMC4145799

Columns and labels:
[1] = biological target: inducible lysine decarboxylase LdcI (Escherichia coli) (UniProt P0A9H3); test: cryo-EM structure; LdcI-LARA complex, 7.5 Å; 7.3 µM LdcI with 73 µM LARA (1:10), 15 min at room temperature, 50 mM Mes pH 6.5, 100 mM NaCl, 0.2 mM PLP, 1 mM DTT, 0.01% glutaraldehyde; D5 symmetry imposed
LdcI (Escherichia coli) = LdcI (Escherichia coli) (UniProt P0A9H3); details: cited from earlier work
Sequence of LdcI (Escherichia coli) (P0A9H3 whole entry): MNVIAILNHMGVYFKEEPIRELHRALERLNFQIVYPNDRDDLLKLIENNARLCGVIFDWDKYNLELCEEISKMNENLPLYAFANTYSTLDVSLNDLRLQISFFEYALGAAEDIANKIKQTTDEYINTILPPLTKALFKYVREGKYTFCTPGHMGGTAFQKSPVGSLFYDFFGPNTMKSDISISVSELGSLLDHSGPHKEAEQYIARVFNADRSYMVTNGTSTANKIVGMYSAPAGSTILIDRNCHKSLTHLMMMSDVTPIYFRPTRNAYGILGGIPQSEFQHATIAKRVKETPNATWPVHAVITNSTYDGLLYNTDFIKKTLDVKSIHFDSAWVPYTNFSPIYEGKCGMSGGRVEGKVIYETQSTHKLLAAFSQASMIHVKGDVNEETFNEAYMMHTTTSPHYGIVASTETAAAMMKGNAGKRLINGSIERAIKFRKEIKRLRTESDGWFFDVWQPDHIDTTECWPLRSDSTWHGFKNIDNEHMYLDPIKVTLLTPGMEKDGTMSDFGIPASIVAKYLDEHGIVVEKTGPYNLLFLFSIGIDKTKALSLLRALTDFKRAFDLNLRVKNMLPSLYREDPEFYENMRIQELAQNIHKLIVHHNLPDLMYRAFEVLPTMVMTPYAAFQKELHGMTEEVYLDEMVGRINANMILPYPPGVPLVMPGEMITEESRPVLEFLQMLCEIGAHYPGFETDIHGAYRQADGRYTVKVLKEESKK

Sequence of RavA (P31473 whole entry): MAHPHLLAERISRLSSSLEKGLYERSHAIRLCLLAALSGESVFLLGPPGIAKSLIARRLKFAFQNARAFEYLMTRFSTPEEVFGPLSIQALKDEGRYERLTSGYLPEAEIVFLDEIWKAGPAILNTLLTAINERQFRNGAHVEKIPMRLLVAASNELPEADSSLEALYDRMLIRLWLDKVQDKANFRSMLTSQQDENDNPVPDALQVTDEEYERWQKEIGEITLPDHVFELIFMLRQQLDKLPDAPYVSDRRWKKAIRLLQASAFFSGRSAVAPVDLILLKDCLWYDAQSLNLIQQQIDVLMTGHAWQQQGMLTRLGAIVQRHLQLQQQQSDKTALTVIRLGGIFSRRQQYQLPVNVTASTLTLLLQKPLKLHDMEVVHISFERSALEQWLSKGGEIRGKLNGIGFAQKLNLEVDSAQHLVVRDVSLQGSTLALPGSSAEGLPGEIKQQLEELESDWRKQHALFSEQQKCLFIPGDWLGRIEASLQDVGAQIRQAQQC
Sequence of inducible lysine decarboxylase LdcI (Escherichia coli) (P0A9H3 whole entry): as the sequence (P0A9H3 whole entry) above

Question: Which stoichiometry N (LARA domain per LdcI protomer) [1] does the source give for “LARA domain of RavA (LdcI associating domain of RavA) (from UniProt P31473 1-498) (domain or fragment)” here?
Answer: 1

Question: Which Kd (LdcI (Escherichia coli)) does the source give for RavA (from UniProt P31473) here?
Answer: 20 nM
